Experimental data reported in US20250179176A1, “ANTI-TIGIT ANTIBODIES AND USES OF THE SAME” (ARCUS BIOSCIENCES, INC., priority 2022, published 2025).

Test: Clinical safety of domvanalimab, 99 participants (AB154CSP0001 and ARC-7): TEAEs, related AEs, SAEs
Type: in vivo, human

B1: domvanalimab: anti-TIGIT antibody with engineered IgG1 Fc, reduced FcγR binding; heavy chain SEQ ID NO: 12, light chain SEQ ID NO: 13 (antibody)
heavy: EVQLVESGGGLVQPGGSLRLSCAASGFTFSNFGMHWVRQAPGKGLEWVAFISSGSSSIYYADTVKGRFTISRDNAKNSLYLQMNSLRAEDTAVYYCARMRLDYYAMDYWGQGTMVTVSSASTKGPSVFPLAPSSKSTSGGTAALGCLVKDYFPEPVTVSWNSGALTSGVHTFPAVLQSSGLYSLSSVVTVPSSSLGTQTYICNVNHKPSNTKVDKKVEPKSCDKTHTCPPCPAPEAAGGPSVFLFPPKPKDTLMISRTPEVTCWVDVSHEDPEVKFNWYVDGVEVHNAKTKPREEQYNSTYRWSVLTVLHQDWLNGKEYKCKVSNKALPAPIEKTISKAKGQPREPQVYTLPPSRDELTKNQVSLTCLVKGFYPSDIAVEWESNGQPENNYKTTPPVLDSDGSFFLYSKLTVDKSRWQQGNVFSCSVMHEALHNHYTQKSLSLSPGK
light: DIQMTQSPSSLSASVGDRVTITCRASKSISKYLAWYQQKPGKAPKLLIYSGSTLQSGVPSRFSGSGSGTDFTLTISSLQPEDFATYYCQQHNEYPWTFGGGTKVEIKRTVAAPSVFIFPPSDEQLKSGTASWCLLNNFYPREAKVQWKVDNALQSGNSQESVTEQDSKDSTYSLSSTLTLSKADYEKHKVYACEVTHQGLSSPVTKSFNRGEC
2 ( 5.4%): Domvanalimab-related AE: Malaise (ARC-7 (N = 37))
4 (6.5%): Domvanalimab-related AE: Fatigue (AB154CSP0001 (N = 62)) | Domvanalimab-related AE: Hypothyroidism (AB154CSP0001 (N = 62))
1 (1.6%): Domvanalimab-related AE: Arthralgia (AB154CSP0001 (N = 62)) | Domvanalimab-related AE: Decreased appetite (AB154CSP0001 (N = 62)) | Domvanalimab-related AE: Rash (AB154CSP0001 (N = 62))
3 (8.1%): Domvanalimab-related AE: Arthralgia (ARC-7 (N = 37)) | Domvanalimab-related AE: Rash (ARC-7 (N = 37)) | Domvanalimab-related AE: Rash maculo-papular (ARC-7 (N = 37))
1 ( 2.7%): Domvanalimab-related AE: Adrenal insufficiency (ARC-7 (N = 37)) | Domvanalimab-related AE: Asthenia (ARC-7 (N = 37)) | Domvanalimab-related AE: Back pain (ARC-7 (N = 37)) | Domvanalimab-related AE: Constipation (ARC-7 (N = 37)) | Domvanalimab-related AE: Cough (ARC-7 (N = 37)) | Domvanalimab-related AE: Delirium (ARC-7 (N = 37)) | Domvanalimab-related AE: Dry eye (ARC-7 (N = 37)) | Domvanalimab-related AE: Dry mouth (ARC-7 (N = 37)) | Domvanalimab-related AE: Dyspnoea exertional (ARC-7 (N = 37)) | Domvanalimab-related AE: Generalised oedema (ARC-7 (N = 37)) | Domvanalimab-related AE: Infusion related reaction (ARC-7 (N = 37)) | Domvanalimab-related AE: Infusion site pain (ARC-7 (N = 37)) | Domvanalimab-related AE: Myalgia (ARC-7 (N = 37)) | Domvanalimab-related AE: Pancreatitis (ARC-7 (N = 37)) | Domvanalimab-related AE: Paraesthesia (ARC-7 (N = 37)) | Domvanalimab-related AE: Pneumonitis (ARC-7 (N = 37)) | Domvanalimab-related AE: Rhinorrhoea (ARC-7 (N = 37)) | Domvanalimab-related AE: Vomiting (ARC-7 (N = 37))
31 (83.8%): Any TEAEs (Table 15, ARC-7 (n = 37))
3 (4.8%): Domvanalimab-related AE: Diarrhoea (AB154CSP0001 (N = 62)) | Domvanalimab-related AE: Headache (AB154CSP0001 (N = 62)) | Domvanalimab-related AE: Pyrexia (AB154CSP0001 (N = 62)) | Domvanalimab-related AE: Rash maculo-papular (AB154CSP0001 (N = 62)) | Domvanalimab-related AE: Tumour flare (AB154CSP0001 (N = 62))
2 ( 3.2%): Domvanalimab-related AE: Immune-mediated hepatitis (AB154CSP0001 (N = 62)) | Domvanalimab-related AE: Pain (AB154CSP0001 (N = 62))
32 (51.6%): Domvanalimab-related AE: Any AEs (AB154CSP0001 (N = 62))
2 (3.2%): Domvanalimab-related AE: Hyperthyroidism (AB154CSP0001 (N = 62))
2 (5.4%): Domvanalimab-related AE: Decreased appetite (ARC-7 (N = 37)) | Domvanalimab-related AE: Diarrhoea (ARC-7 (N = 37)) | Domvanalimab-related AE: Fatigue (ARC-7 (N = 37)) | Domvanalimab-related AE: Pyrexia (ARC-7 (N = 37))
4.0%: SAE small bowel obstruction, frequency (99 participants)
5 (8.1%): Domvanalimab-related AE: Nausea (AB154CSP0001 (N = 62)) | Domvanalimab-related AE: Pruritus (AB154CSP0001 (N = 62))
4 (10.8%): Domvanalimab-related AE: Pruritus (ARC-7 (N = 37))
1 ( 1.6%): Domvanalimab-related AE: Abdominal distension (AB154CSP0001 (N = 62)) | Domvanalimab-related AE: Abdominal pain (AB154CSP0001 (N = 62)) | Domvanalimab-related AE: Anaemia (AB154CSP0001 (N = 62)) | Domvanalimab-related AE: Arthritis (AB154CSP0001 (N = 62)) | Domvanalimab-related AE: Aspartate aminotransferase increased (AB154CSP0001 (N = 62)) | Domvanalimab-related AE: Back pain (AB154CSP0001 (N = 62)) | Domvanalimab-related AE: Constipation (AB154CSP0001 (N = 62)) | Domvanalimab-related AE: Flank pain (AB154CSP0001 (N = 62)) | Domvanalimab-related AE: Hot flush (AB154CSP0001 (N = 62)) | Domvanalimab-related AE: Hyperglycaemia (AB154CSP0001 (N = 62)) | Domvanalimab-related AE: Hyperkalaemia (AB154CSP0001 (N = 62)) | Domvanalimab-related AE: Hypokalaemia (AB154CSP0001 (N = 62)) | Domvanalimab-related AE: Influenza like illness (AB154CSP0001 (N = 62)) | Domvanalimab-related AE: Infusion related reaction (AB154CSP0001 (N = 62)) | Domvanalimab-related AE: Liver function test increased (AB154CSP0001 (N = 62)) | Domvanalimab-related AE: Lymphopenia (AB154CSP0001 (N = 62)) | Domvanalimab-related AE: Muscle spasms (AB154CSP0001 (N = 62)) | Domvanalimab-related AE: Musculoskeletal chest pain (AB154CSP0001 (N = 62)) | Domvanalimab-related AE: Nail disorder (AB154CSP0001 (N = 62)) | Domvanalimab-related AE: Nasal mucosal disorder (AB154CSP0001 (N = 62)) | Domvanalimab-related AE: Oral pain (AB154CSP0001 (N = 62)) | Domvanalimab-related AE: Peripheral sensory neuropathy (AB154CSP0001 (N = 62)) | Domvanalimab-related AE: Pneumonitis (AB154CSP0001 (N = 62)) | Domvanalimab-related AE: Pruritus generalised (AB154CSP0001 (N = 62)) | Domvanalimab-related AE: Pulmonary pain (AB154CSP0001 (N = 62)) | Domvanalimab-related AE: Rash pruritic (AB154CSP0001 (N = 62)) | Domvanalimab-related AE: Transaminases increased (AB154CSP0001 (N = 62)) | Domvanalimab-related AE: Tumour pain (AB154CSP0001 (N = 62))
1 (2.7%): Domvanalimab-related AE: Headache (ARC-7 (N = 37)) | Domvanalimab-related AE: Hyperthyroidism (ARC-7 (N = 37)) | Domvanalimab-related AE: Nausea (ARC-7 (N = 37))
18 (48.6%): Domvanalimab-related AE: Any AEs (ARC-7 (N = 37))
